Laboratory results from article PMC4521584, “MutS/MutL crystal structure reveals that the MutS sliding clamp loads MutL onto DNA”.
Changes are numbered by the printed parent chain.

Experiments:
MutLLN40 N131C = MutLLN40 N131C (UniProt P23367 1-349, N131C); test: SPR; 1 mM ATP, 150 mM KCl; SPR: 25 mM Hepes pH 7.5, 150 mM KCl, 5 mM MgCl2, 1 mM DTT, 0.05% Tween-20, 1 mM ATP (+20% glycerol for MutL-MutS assay); FP: same but 50 mM KCl, no ATP (+10% glycerol for full-length MutL); stopped-flow: 150 mM KCl, 10 uM ADP +/- 1 mM ATP, 15 C; FRET: 25 mM Hepes pH 7.2, 150 mM KCl, 5 mM MgCl2; details: protein: recombinant; tags: His; label: biotin at one end (immobilized), fluorescein at the other; blunt, one G:T mismatch
MutSΔC800 D246C [1] = target: T1, MutSΔC800 D246C (UniProt P23909 1-800, D246C); test: SPR; 1 mM ATP, 150 mM KCl; fast off-rate; SPR: 25 mM Hepes pH 7.5, 150 mM KCl, 5 mM MgCl2, 1 mM DTT, 0.05% Tween-20, 1 mM ATP (+20% glycerol for MutL-MutS assay); FP: same but 50 mM KCl, no ATP (+10% glycerol for full-length MutL); stopped-flow: 150 mM KCl, 10 uM ADP +/- 1 mM ATP, 15 C; FRET: 25 mM Hepes pH 7.2, 150 mM KCl, 5 mM MgCl2; details: protein: recombinant; chain copies: 2; label: biotin at one end (immobilized), fluorescein at the other; blunt, one G:T mismatch
T1 sequence: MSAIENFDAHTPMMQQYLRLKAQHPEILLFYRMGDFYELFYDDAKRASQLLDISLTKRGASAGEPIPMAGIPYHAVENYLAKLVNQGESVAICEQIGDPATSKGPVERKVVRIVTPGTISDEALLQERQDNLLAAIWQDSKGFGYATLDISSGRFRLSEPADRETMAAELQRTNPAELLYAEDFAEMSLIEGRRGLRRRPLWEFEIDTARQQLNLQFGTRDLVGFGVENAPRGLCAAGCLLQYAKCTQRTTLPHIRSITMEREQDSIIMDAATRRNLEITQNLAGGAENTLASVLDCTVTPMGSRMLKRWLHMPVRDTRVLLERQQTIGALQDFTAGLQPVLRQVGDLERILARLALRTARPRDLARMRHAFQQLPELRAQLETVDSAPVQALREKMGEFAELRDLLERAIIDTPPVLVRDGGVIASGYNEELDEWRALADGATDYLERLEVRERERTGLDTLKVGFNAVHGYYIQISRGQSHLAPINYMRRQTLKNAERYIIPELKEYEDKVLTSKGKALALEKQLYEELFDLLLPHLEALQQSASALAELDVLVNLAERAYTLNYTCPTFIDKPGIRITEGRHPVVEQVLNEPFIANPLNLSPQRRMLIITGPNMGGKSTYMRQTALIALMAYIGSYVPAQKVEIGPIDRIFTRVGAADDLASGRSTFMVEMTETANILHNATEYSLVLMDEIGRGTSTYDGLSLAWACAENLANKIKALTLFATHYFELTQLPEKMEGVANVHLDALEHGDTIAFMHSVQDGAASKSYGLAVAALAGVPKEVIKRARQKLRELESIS

MutS WT;MutL WT = MutS WT;MutL WT (Escherichia coli?;Escherichia coli?, UniProt P23909;P23367 1-853;1-615, |); test: SPR; 1 mM ATP, end-blocked; MutL binds preformed MutS clamp; SPR: 25 mM Hepes pH 7.5, 150 mM KCl, 5 mM MgCl2, 1 mM DTT, 0.05% Tween-20, 1 mM ATP (+20% glycerol for MutL-MutS assay); FP: same but 50 mM KCl, no ATP (+10% glycerol for full-length MutL); stopped-flow: 150 mM KCl, 10 uM ADP +/- 1 mM ATP, 15 C; FRET: 25 mM Hepes pH 7.2, 150 mM KCl, 5 mM MgCl2; details: protein: recombinant;recombinant; tags: ;His6; chain copies: 2;2; label: biotin at one end (immobilized), fluorescein at the other; blunt, one G:T mismatch
MutS WT = target: T2, MutS WT (UniProt P23909 1-853); test: SPR; 1 mM ATP, end-blocked with anti-fluorescein Fab; sliding clamp; SPR: 25 mM Hepes pH 7.5, 150 mM KCl, 5 mM MgCl2, 1 mM DTT, 0.05% Tween-20, 1 mM ATP (+20% glycerol for MutL-MutS assay); FP: same but 50 mM KCl, no ATP (+10% glycerol for full-length MutL); stopped-flow: 150 mM KCl, 10 uM ADP +/- 1 mM ATP, 15 C; FRET: 25 mM Hepes pH 7.2, 150 mM KCl, 5 mM MgCl2; details: protein: recombinant; chain copies: 2; label: biotin at one end (immobilized), fluorescein at the other; blunt, one G:T mismatch
T2 sequence: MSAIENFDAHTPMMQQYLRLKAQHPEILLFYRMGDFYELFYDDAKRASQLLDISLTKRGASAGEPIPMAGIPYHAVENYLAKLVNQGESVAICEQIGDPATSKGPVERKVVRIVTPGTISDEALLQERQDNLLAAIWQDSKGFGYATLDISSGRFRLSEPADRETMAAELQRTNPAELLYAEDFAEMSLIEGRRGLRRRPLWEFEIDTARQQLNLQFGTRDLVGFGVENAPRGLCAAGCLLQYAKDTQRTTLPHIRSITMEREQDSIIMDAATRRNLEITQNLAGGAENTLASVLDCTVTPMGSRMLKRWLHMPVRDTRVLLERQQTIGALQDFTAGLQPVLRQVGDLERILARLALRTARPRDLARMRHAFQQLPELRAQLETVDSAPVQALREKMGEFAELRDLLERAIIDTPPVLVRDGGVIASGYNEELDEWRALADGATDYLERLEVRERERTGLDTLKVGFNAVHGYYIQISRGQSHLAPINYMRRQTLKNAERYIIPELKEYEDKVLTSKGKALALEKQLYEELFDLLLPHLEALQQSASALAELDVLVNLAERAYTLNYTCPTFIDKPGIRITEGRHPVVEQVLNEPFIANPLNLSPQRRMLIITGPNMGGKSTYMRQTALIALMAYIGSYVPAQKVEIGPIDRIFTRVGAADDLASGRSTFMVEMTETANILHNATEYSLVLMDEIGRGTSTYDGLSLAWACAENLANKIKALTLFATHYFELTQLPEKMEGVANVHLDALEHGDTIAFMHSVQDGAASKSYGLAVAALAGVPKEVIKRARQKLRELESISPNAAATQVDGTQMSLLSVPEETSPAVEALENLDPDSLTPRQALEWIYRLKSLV

MutSΔC800 D246C [2] = target: T1, MutSΔC800 D246C; test: SPR; 1 mM ATP; fitted maximum response 104 RU; SPR: 25 mM Hepes pH 7.5, 150 mM KCl, 5 mM MgCl2, 1 mM DTT, 0.05% Tween-20, 1 mM ATP (+20% glycerol for MutL-MutS assay); FP: same but 50 mM KCl, no ATP (+10% glycerol for full-length MutL); stopped-flow: 150 mM KCl, 10 uM ADP +/- 1 mM ATP, 15 C; FRET: 25 mM Hepes pH 7.2, 150 mM KCl, 5 mM MgCl2; details: protein: recombinant; chain copies: 2; label: immobilized for SPR; blunt, one G:T mismatch
[3] = target: MutLLN40 N131C R162E/R266E/R316E (UniProt P23367 1-349, N131C;R162E;R266E;R316E); test: fluorescence polarization; 50 mM KCl; binding completely abolished; SPR: 25 mM Hepes pH 7.5, 150 mM KCl, 5 mM MgCl2, 1 mM DTT, 0.05% Tween-20, 1 mM ATP (+20% glycerol for MutL-MutS assay); FP: same but 50 mM KCl, no ATP (+10% glycerol for full-length MutL); stopped-flow: 150 mM KCl, 10 uM ADP +/- 1 mM ATP, 15 C; FRET: 25 mM Hepes pH 7.2, 150 mM KCl, 5 mM MgCl2; details: protein: recombinant; tags: His; label: 5' TAMRA; blunt
MutSΔC800 D246C [4] = target: T1, MutSΔC800 D246C; test: stopped-flow FRET and FP; 10 uM ADP, no ATP; binding with kinking; SPR: 25 mM Hepes pH 7.5, 150 mM KCl, 5 mM MgCl2, 1 mM DTT, 0.05% Tween-20, 1 mM ATP (+20% glycerol for MutL-MutS assay); FP: same but 50 mM KCl, no ATP (+10% glycerol for full-length MutL); stopped-flow: 150 mM KCl, 10 uM ADP +/- 1 mM ATP, 15 C; FRET: 25 mM Hepes pH 7.2, 150 mM KCl, 5 mM MgCl2; details: protein: recombinant; chain copies: 2; label: FRET: Alexa Fluor 594 on top T11 and Alexa Fluor 488 on bottom T10; FP: 5' TAMRA on top; blunt, one G:T mismatch
MutSΔC800 D246C;MutL WT = MutSΔC800 D246C;MutL WT (Escherichia coli?;Escherichia coli?, UniProt P23909;P23367 1-800;1-615, D246C|); test: stopped-flow FRET and FP; 400 nM MutL mixed, 1 mM ATP; more binding at equilibrium than MutSΔC800 alone; SPR: 25 mM Hepes pH 7.5, 150 mM KCl, 5 mM MgCl2, 1 mM DTT, 0.05% Tween-20, 1 mM ATP (+20% glycerol for MutL-MutS assay); FP: same but 50 mM KCl, no ATP (+10% glycerol for full-length MutL); stopped-flow: 150 mM KCl, 10 uM ADP +/- 1 mM ATP, 15 C; FRET: 25 mM Hepes pH 7.2, 150 mM KCl, 5 mM MgCl2; details: protein: recombinant;recombinant; tags: ;His6; chain copies: 2;2; label: FRET: Alexa Fluor 594 on top T11 and Alexa Fluor 488 on bottom T10; FP: 5' TAMRA on top; blunt, one G:T mismatch

B1: 100-bp G:T mismatch DNA (dsDNA)
DNA 1: AAACAGGCTTAGGCTGGAGCTGAAGCTTAGCTTAGGATCATCGAGGATCGAGCTCGGTGCAATTCAGCGGTACCCAATTCGCCCTATAGGCATCCAGGTT
DNA 2: AACCTGGATGCCTATAGGGCGAATTGGGTACCGCTGAATTGCACCGAGCTTGATCCTCGATGATCCTAAGCTAAGCTTCAGCTCCAGCCTAAGCCTGTTT
B1: no binding (MutLLN40 N131C); binds (MutSΔC800 D246C [1]); binds (MutS WT;MutL WT). B1: binds (MutS WT).

B2: 41-bp G:T mismatch DNA (dsDNA)
DNA 1: ATAGGACGCTGACACTGGTGCTTGGCAGCTTCTAATTCGAT
DNA 2: ATCGAATTAGAAGCTGCCAGGCACCAGTGTCAGCGTCCTAT
B2: binds (MutSΔC800 D246C [2]).

B3: 41-bp homoduplex, TAMRA (dsDNA)
DNA 1: B2 DNA 1
DNA 2: B2 DNA 2 with G20A
B3: no binding [3].

B4: 45-bp G:T mismatch DNA (dsDNA)
DNA 1: GTCATCCTCGTCTCAAGCTGCCAGGCACCAGTGTCAGCGTCCTAT
DNA 2: ATAGGACGCTGACACTGGTGCTTGGCAGCTTGAGACGAGGATGAC
B4: binds (MutSΔC800 D246C [4]); binds (MutSΔC800 D246C;MutL WT).
